Laboratory results published in PMC12999518 (Nature Structural & Molecular Biology, 2026).
One block for each binder: values may come before it.

B1: Npr2 (natural protein, yeast (endogenous, TB50 background), UniProt P39923 1-615, looked up)
chain: MLSYFQGFVPIHTIFYSVFHPTEGSKIKYEFPPNNLKNHGINFNTFKNYIIPKPILCHKLITFKYGTYRIVCYPVTINSPIYARNFFSFNFVFVFPYDCETSPYEPAITRLGKMFKVLEEQNQLLSKSERDPVFFDLKVLENSTTTPSTAGPSSTPNPSSNTTPTHPTSEKDTKDMRSSRYSDLIKDLGLPQSAFSIQDLLMRIFQDLNNYSECLIPIDEGNAVDIKIFPLLRPPTTCVSLEDVPLSSVNLKKIIDVNWDPTMMSIVPYIDGLNSIAKISKLSNSDPGLVIECIRHLIYYKCVTLSDIFQFSNIYAPSSLIRNFLTDPLMASDCQSYVTFPEVSKISNLPLNKSLGSGDQDSPSFSVRRKSKSSSIPSNPDSRTTSFSSTSRVSQNSSLNSSFSSIYKDWRQSQTSCSSSNIHVINNRNRFLPTRSCLFDLYRSLSQGQTLKTWYESKYMILKENNIDIRRFITFGLEKRIIYRCYSFPVMINAGSREPKEMTPIITKDLVNNDKLLEKRNHNHLLSATGSRNTAQSGNLKPERPSKVSFEMQRVSSLATGKSTMPKLSDEEEGILEESIRNAETFDKICVLLSKPKLEVESYLNELGEFKVINS
B2: Gtr2 (natural protein, yeast, UniProt P53290 1-341, looked up)
chain: MSLEATDSKAMVLLMGVRRCGKSSICKVVFHNMQPLDTLYLESTSNPSLEHFSTLIDLAVMELPGQLNYFEPSYDSERLFKSVGALVYVIDSQDEYINAITNLAMIIEYAYKVNPSINIEVLIHKVDGLSEDFKVDAQRDIMQRTGEELLELGLDGVQVSFYLTSIFDHSIYEAFSRIVQKLIPELSFLENMLDNLIQHSKIEKAFLFDVNSKIYVSTDSNPVDIQMYEVCSEFIDVTIDLFDLYKAPVLRNSQKSSDKDNVINPRNELQNVSQLANGVIIYLRQMIRGLALVAIIRPNGTDMESCLTVADYNIDIFKKGLEDIWANARASQAKNSIEDDV

What was measured:
Test in all cases: cryo-EM structure
Sea3 = biological target: T1, Sea3 (yeast (endogenous, TB50 background), UniProt Q03897 1-1148)
T1 sequence (looked up): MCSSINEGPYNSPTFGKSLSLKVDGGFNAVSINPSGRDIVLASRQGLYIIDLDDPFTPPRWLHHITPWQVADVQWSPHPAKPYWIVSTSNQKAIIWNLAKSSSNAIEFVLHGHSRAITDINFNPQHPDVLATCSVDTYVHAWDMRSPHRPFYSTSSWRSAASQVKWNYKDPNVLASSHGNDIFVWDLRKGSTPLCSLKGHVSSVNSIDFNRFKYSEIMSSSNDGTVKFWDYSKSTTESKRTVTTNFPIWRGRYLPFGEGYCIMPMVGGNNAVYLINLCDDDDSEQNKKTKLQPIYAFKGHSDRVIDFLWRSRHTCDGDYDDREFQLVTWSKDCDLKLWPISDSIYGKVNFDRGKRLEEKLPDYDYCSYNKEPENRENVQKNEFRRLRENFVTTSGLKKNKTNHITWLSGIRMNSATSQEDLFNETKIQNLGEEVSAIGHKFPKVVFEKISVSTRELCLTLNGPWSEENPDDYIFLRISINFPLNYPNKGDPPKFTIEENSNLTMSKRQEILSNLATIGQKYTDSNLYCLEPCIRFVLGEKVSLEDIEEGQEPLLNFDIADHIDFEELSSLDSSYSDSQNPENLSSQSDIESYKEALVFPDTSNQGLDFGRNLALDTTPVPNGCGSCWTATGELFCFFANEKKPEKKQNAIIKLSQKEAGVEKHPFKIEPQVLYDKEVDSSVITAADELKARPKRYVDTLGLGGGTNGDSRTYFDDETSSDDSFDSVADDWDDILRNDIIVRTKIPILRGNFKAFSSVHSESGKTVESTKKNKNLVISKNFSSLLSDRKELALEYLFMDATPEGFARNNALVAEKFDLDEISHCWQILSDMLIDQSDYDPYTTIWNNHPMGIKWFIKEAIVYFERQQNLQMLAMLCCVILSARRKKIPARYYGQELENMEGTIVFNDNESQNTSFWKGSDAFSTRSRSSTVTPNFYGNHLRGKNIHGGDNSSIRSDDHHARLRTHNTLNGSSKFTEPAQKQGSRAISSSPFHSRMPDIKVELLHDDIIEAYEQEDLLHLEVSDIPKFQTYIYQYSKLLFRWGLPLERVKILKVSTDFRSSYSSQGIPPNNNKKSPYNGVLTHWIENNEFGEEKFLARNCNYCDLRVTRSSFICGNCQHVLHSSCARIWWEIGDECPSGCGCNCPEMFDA

Sea1 = Sea1 (yeast (endogenous, TB50 background), UniProt P47170 1-1584)
Sea1, sequence (P47170 whole entry): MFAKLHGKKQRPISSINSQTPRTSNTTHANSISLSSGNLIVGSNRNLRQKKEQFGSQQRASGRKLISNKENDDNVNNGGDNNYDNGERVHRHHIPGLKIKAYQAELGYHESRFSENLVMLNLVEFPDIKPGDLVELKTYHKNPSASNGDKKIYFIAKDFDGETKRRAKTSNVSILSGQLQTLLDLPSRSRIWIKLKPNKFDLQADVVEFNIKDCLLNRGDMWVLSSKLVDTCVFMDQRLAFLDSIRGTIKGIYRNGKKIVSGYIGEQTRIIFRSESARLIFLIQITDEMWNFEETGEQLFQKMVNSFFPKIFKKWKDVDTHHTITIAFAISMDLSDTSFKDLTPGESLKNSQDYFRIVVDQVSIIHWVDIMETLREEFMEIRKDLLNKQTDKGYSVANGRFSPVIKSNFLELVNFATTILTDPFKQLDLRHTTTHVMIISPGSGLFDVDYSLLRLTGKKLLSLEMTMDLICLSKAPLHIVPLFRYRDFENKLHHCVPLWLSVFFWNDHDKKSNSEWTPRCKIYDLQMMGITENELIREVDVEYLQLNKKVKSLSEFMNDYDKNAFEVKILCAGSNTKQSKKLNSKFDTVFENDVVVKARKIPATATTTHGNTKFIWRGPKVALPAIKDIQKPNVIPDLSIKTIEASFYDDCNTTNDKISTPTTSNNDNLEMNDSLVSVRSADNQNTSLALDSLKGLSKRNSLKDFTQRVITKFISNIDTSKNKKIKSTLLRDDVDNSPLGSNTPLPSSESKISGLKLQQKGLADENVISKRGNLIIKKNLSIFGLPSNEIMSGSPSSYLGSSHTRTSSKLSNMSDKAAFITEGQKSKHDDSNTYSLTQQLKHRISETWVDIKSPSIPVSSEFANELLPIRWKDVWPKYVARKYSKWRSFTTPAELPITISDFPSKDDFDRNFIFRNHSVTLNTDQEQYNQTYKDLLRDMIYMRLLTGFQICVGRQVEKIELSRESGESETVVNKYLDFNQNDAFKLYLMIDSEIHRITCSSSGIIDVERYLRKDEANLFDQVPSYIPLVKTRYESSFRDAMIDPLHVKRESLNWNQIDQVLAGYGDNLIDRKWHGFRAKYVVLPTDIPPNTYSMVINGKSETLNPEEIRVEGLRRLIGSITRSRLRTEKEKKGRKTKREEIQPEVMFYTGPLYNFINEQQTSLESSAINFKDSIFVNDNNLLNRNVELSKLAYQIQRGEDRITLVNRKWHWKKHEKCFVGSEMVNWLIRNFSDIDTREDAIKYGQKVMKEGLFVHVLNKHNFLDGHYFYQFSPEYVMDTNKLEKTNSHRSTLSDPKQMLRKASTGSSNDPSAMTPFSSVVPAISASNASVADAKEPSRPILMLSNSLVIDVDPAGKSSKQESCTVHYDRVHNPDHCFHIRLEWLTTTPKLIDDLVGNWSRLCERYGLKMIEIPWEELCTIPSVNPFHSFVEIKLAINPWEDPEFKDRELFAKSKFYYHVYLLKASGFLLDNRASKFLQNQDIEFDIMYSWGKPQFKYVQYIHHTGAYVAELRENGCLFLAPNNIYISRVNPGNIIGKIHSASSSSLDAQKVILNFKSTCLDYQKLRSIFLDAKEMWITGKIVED

Gtr2 = biological target: B2
Npr2 = biological target: B1

Binder: B1
binding result (Sea3): binds

Binder: B2
binding result (Sea1): binds

binding result (Gtr2): binds
binding result (Npr2): binds
B3: Gtr1 (natural protein, yeast, UniProt Q00582 1-310, looked up)
chain: MSSNNRKKLLLMGRSGSGKSSMRSIIFSNYSAFDTRRLGATIDVEHSHLRFLGNMTLNLWDCGGQDVFMENYFTKQKDHIFQMVQVLIHVFDVESTEVLKDIEIFAKALKQLRKYSPDAKIFVLLHKMDLVQLDKREELFQIMMKNLSETSSEFGFPNLIGFPTSIWDESLYKAWSQIVCSLIPNMSNHQSNLKKFKEIMNALEIILFERTTFLVICSSNGENSNENHDSSDNNNVLLDPKRFEKISNIMKNFKQSCTKLKSGFKTLILNNNIYVSELSSNMVCFIVLKDMNIPQELVLENIKKAKEFFQ
